# In paper PMC7537385:
# Biological target: Exoc7-sfGFP (mouse, endogenously tagged) (mouse (endogenous in normal murine mammary gland cells)) (UniProt O35250)
# Experiment: co-IP
# Sequence of UniProt O35250 (O35250 whole entry): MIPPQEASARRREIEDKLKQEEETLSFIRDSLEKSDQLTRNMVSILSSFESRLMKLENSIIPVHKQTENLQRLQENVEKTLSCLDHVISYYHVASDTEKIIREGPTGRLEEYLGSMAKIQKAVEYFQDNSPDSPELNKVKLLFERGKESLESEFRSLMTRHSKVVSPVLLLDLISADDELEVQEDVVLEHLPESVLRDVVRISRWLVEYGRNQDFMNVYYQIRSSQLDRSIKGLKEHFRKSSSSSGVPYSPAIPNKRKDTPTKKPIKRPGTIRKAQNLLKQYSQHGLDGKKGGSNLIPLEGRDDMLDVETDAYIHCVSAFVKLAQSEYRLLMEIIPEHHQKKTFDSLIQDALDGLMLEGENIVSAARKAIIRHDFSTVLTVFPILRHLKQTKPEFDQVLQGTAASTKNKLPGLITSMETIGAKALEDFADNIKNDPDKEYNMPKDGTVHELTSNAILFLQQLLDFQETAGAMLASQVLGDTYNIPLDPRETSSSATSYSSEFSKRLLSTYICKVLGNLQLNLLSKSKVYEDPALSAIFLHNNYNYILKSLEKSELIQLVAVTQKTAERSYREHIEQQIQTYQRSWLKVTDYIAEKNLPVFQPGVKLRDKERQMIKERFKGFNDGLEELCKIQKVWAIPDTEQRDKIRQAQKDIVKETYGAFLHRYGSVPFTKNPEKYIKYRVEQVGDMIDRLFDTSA
substance,measurement,value
"Exoc2 truncated, ~48-kD N-terminal fragment (mouse) (domain or fragment)",percent coprecipitated with Exoc7-GFP,53%
